test system: Escherichia coli TOP10; test: shrunken log2 fold change of peptide-encoding DNA abundance (4.5 h post-induction vs induction); higher = less antimicrobial activity (less host growth inhibition); details: time post-induction: 4.5 h; library: site-saturation at positions 5, 18, 19, 20
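Further: peptides expressed intracellularly from a pBAD plasmid library in pooled LB shake-flask culture, induced with 0.3% L-arabinose, DNA abundance read by NGS, three biological replicates, DESeq2 with apeglm shrinkage.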

| Sequence | shrunken log2 fold change |
| --- | --- |
| RRIRHRPPRLPRPRPRPFEDPRP | 0.0112 |
| RRIRHRPPRLPRPRPRPKKGPRP | -0.0679 |
| RRIRMRPPRLPRPRPRPETVPRP | 2.2 |
| RRIRVRPPRLPRPRPRPDQMPRP | 0.0399 |
| RRIRMRPPRLPRPRPRPFHCPRP | 0.0959 |
| RRIRGRPPRLPRPRPRPSHNPRP | -0.189 |
| RRIRARPPRLPRPRPRPLAYPRP | 0.293 |
| RRIRDRPPRLPRPRPRPKVVPRP | -0.01 |
| RRIRDRPPRLPRPRPRPWYWPRP | 0.000762 |
| RRIRARPPRLPRPRPRPMITPRP | 0.312 |
| RRIRERPPRLPRPRPRPTAPPRP | -0.043 |
| RRIRLRPPRLPRPRPRPNAVPRP | 0.00719 |
| RRIRTRPPRLPRPRPRPDCWPRP | 0.0105 |
| RRIRWRPPRLPRPRPRPTVMPRP | -0.374 |
| RRIRMRPPRLPRPRPRPQMMPRP | 0.443 |
| RRIRIRPPRLPRPRPRPYISPRP | -0.0173 |
| RRIRARPPRLPRPRPRPGCTPRP | 0.552 |
| RRIRCRPPRLPRPRPRPLMKPRP | -0.275 |
| RRIRQRPPRLPRPRPRPICAPRP | 0.36 |
| RRIRCRPPRLPRPRPRPKREPRP | 0.636 |
| RRIRIRPPRLPRPRPRPPKHPRP | 0.00437 |
| RRIRIRPPRLPRPRPRPFNTPRP | -0.191 |
| RRIRWRPPRLPRPRPRPRSKPRP | 0.118 |
| RRIRNRPPRLPRPRPRPLRFPRP | 0.426 |
| RRIRKRPPRLPRPRPRPFRTPRP | 0.000407 |

| Sequence | shrunken log2 fold change |
| --- | --- |
| RRIRSRPPRLPRPRPRPGAFPRP | 0.0905 |
| RRIRERPPRLPRPRPRPWNDPRP | -0.342 |
| RRIRSRPPRLPRPRPRPKHHPRP | -0.387 |
| RRIRMRPPRLPRPRPRPWPDPRP | 0.592 |
| RRIRARPPRLPRPRPRPLFLPRP | 0.0297 |
| RRIRVRPPRLPRPRPRPNGQPRP | 0.0697 |
| RRIRGRPPRLPRPRPRPCEPPRP | 0.241 |
| RRIRPRPPRLPRPRPRPAMCPRP | -0.0389 |
| RRIRNRPPRLPRPRPRPSWSPRP | -0.0724 |
| RRIRERPPRLPRPRPRPMLAPRP | 0.193 |
| RRIRARPPRLPRPRPRPRFYPRP | -0.0395 |
| RRIRWRPPRLPRPRPRPSDMPRP | -0.354 |
| RRIRRRPPRLPRPRPRPCCAPRP | 0.372 |
| RRIRHRPPRLPRPRPRPAVVPRP | -0.182 |
| RRIRVRPPRLPRPRPRPDFIPRP | -0.396 |
| RRIRDRPPRLPRPRPRPFCQPRP | -0.00439 |
| RRIRERPPRLPRPRPRPIALPRP | -0.0132 |
| RRIRCRPPRLPRPRPRPLKFPRP | -0.162 |
| RRIRPRPPRLPRPRPRPLLYPRP | -0.348 |
| RRIRLRPPRLPRPRPRPGYEPRP | -0.11 |
| RRIRKRPPRLPRPRPRPAKKPRP | 1.06 |
| RRIRDRPPRLPRPRPRPSWNPRP | -0.365 |
| RRIRERPPRLPRPRPRPMGTPRP | -0.272 |
| RRIRVRPPRLPRPRPRPTNHPRP | -0.384 |
| RRIRARPPRLPRPRPRPNWTPRP | 0.0524 |

| Sequence | shrunken log2 fold change |
| --- | --- |
| RRIRDRPPRLPRPRPRPIWRPRP | 0.235 |
| RRIRERPPRLPRPRPRPRLMPRP | -0.103 |
| RRIRDRPPRLPRPRPRPMNNPRP | -0.424 |
| RRIRERPPRLPRPRPRPFDTPRP | -0.267 |
| RRIRRRPPRLPRPRPRPTIHPRP | -0.0346 |
| RRIRSRPPRLPRPRPRPPETPRP | 0.103 |
| RRIRYRPPRLPRPRPRPNIGPRP | -0.105 |
| RRIRHRPPRLPRPRPRPCFCPRP | -0.226 |
| RRIRPRPPRLPRPRPRPVLTPRP | 0.0816 |
| RRIRTRPPRLPRPRPRPAKSPRP | -0.055 |
| RRIRTRPPRLPRPRPRPRWYPRP | -0.288 |
| RRIRWRPPRLPRPRPRPRKTPRP | -0.0389 |
| RRIRHRPPRLPRPRPRPRENPRP | 0.0589 |
| RRIRARPPRLPRPRPRPAHMPRP | -0.114 |
| RRIRMRPPRLPRPRPRPSKWPRP | -0.104 |
| RRIRMRPPRLPRPRPRPYSKPRP | -0.145 |
| RRIRSRPPRLPRPRPRPLFDPRP | -0.335 |
| RRIRERPPRLPRPRPRPRQPPRP | 0.273 |
| RRIRLRPPRLPRPRPRPIHYPRP | -0.186 |
| RRIRWRPPRLPRPRPRPCEQPRP | 0.263 |
| RRIRYRPPRLPRPRPRPWYKPRP | -0.0225 |
| RRIRMRPPRLPRPRPRPAPMPRP | 0.953 |
| RRIRPRPPRLPRPRPRPSRAPRP | 0.11 |
| RRIRLRPPRLPRPRPRPVAIPRP | 0.0902 |
| RRIRIRPPRLPRPRPRPAIMPRP | -0.565 |

| Sequence | shrunken log2 fold change |
| --- | --- |
| RRIRIRPPRLPRPRPRPICVPRP | -0.181 |
| RRIRRRPPRLPRPRPRPYHMPRP | -0.254 |
| RRIRSRPPRLPRPRPRPWLHPRP | -0.254 |
| RRIRDRPPRLPRPRPRPDNPPRP | -0.159 |
| RRIRDRPPRLPRPRPRPTVLPRP | 0.306 |
| RRIRKRPPRLPRPRPRPGYHPRP | 0.0924 |
| RRIRERPPRLPRPRPRPIGPPRP | -0.138 |
| RRIRHRPPRLPRPRPRPISDPRP | -0.179 |
| RRIRYRPPRLPRPRPRPVPLPRP | -0.17 |
| RRIRVRPPRLPRPRPRPVWQPRP | 0.148 |
| RRIRQRPPRLPRPRPRPAAYPRP | -0.169 |
| RRIRKRPPRLPRPRPRPTLQPRP | 0.594 |
| RRIRYRPPRLPRPRPRPSYCPRP | -0.407 |
| RRIRARPPRLPRPRPRPPLSPRP | 0.549 |
| RRIRERPPRLPRPRPRPNQGPRP | -0.348 |
| RRIRNRPPRLPRPRPRPTSQPRP | 0.187 |
| RRIRPRPPRLPRPRPRPVHPPRP | 0.127 |
| RRIRIRPPRLPRPRPRPDHYPRP | -0.38 |
| RRIRVRPPRLPRPRPRPFHFPRP | -0.238 |
| RRIRQRPPRLPRPRPRPIVHPRP | -0.265 |
| RRIRMRPPRLPRPRPRPWGKPRP | 0.0449 |
| RRIRWRPPRLPRPRPRPSDSPRP | -0.0671 |
| RRIRGRPPRLPRPRPRPYECPRP | -0.075 |
| RRIRLRPPRLPRPRPRPEGEPRP | 0.624 |
| RRIRMRPPRLPRPRPRPVGSPRP | 0.99 |

| Sequence | shrunken log2 fold change |
| --- | --- |
| RRIRKRPPRLPRPRPRPPVDPRP | 0.0616 |
| RRIRKRPPRLPRPRPRPWLLPRP | 0.0409 |
| RRIRARPPRLPRPRPRPRNWPRP | 0.388 |
| RRIRVRPPRLPRPRPRPCEHPRP | -0.0331 |
| RRIRPRPPRLPRPRPRPIEQPRP | 0.000804 |
| RRIRQRPPRLPRPRPRPEGDPRP | 0.00223 |
| RRIRKRPPRLPRPRPRPVQAPRP | 0.741 |
| RRIRPRPPRLPRPRPRPIQWPRP | 0.0833 |
| RRIRVRPPRLPRPRPRPIYAPRP | -0.0133 |
| RRIRFRPPRLPRPRPRPYFHPRP | -1.66 |
| RRIRHRPPRLPRPRPRPPEYPRP | 0.0328 |
| RRIRTRPPRLPRPRPRPTTNPRP | -0.19 |
| RRIRRRPPRLPRPRPRPNWRPRP | 0.415 |
| RRIRARPPRLPRPRPRPSHTPRP | 0.162 |
| RRIRLRPPRLPRPRPRPHVLPRP | -0.0737 |
| RRIRERPPRLPRPRPRPVTTPRP | -0.0245 |
| RRIRARPPRLPRPRPRPICIPRP | 0.227 |
| RRIRERPPRLPRPRPRPQTTPRP | 0.0104 |
| RRIRGRPPRLPRPRPRPACQPRP | 0.883 |
| RRIRTRPPRLPRPRPRPREKPRP | -0.00088 |
| RRIRFRPPRLPRPRPRPPYAPRP | 0.0335 |
| RRIRIRPPRLPRPRPRPWVPPRP | -0.28 |
| RRIRVRPPRLPRPRPRPNWQPRP | 0.108 |
| RRIRGRPPRLPRPRPRPLEFPRP | 0.319 |
| RRIRMRPPRLPRPRPRPYLEPRP | -0.0515 |

| Sequence | shrunken log2 fold change |
| --- | --- |
| RRIRHRPPRLPRPRPRPNFVPRP | -0.0788 |
| RRIRVRPPRLPRPRPRPCNIPRP | 0.0254 |
| RRIRARPPRLPRPRPRPENAPRP | 0.687 |
| RRIRVRPPRLPRPRPRPYIGPRP | -0.661 |
| RRIRNRPPRLPRPRPRPEISPRP | -0.126 |
| RRIRERPPRLPRPRPRPWYPPRP | -0.224 |
| RRIRPRPPRLPRPRPRPNTTPRP | -0.131 |
| RRIRARPPRLPRPRPRPMSNPRP | -0.433 |
| RRIRWRPPRLPRPRPRPVNVPRP | -0.328 |
| RRIRFRPPRLPRPRPRPWSPPRP | -0.491 |
| RRIRWRPPRLPRPRPRPKTCPRP | 0.174 |
| RRIRGRPPRLPRPRPRPYMAPRP | -0.388 |
| RRIRIRPPRLPRPRPRPAIWPRP | 0.0492 |
| RRIRHRPPRLPRPRPRPKCLPRP | -0.25 |
| RRIRYRPPRLPRPRPRPYGKPRP | -1.27 |
| RRIRHRPPRLPRPRPRPNADPRP | 0.031 |
| RRIRKRPPRLPRPRPRPKQYPRP | -0.222 |
| RRIRARPPRLPRPRPRPGWHPRP | 0.378 |
| RRIRGRPPRLPRPRPRPDYIPRP | -0.144 |
| RRIRIRPPRLPRPRPRPTQYPRP | -0.616 |
| RRIRLRPPRLPRPRPRPHMYPRP | -1.07 |
| RRIRRRPPRLPRPRPRPQLDPRP | -0.0387 |
| RRIRSRPPRLPRPRPRPYKHPRP | -0.734 |
| RRIRYRPPRLPRPRPRPDQLPRP | -0.122 |
| RRIRARPPRLPRPRPRPCPAPRP | 0.209 |
